From patent US20170107290A1

Target: human Axl on MDA-MB-231 cells (human) (UniProt P30530)
Sequence of UniProt P30530 (P30530 26-894 Q764R limits assumed): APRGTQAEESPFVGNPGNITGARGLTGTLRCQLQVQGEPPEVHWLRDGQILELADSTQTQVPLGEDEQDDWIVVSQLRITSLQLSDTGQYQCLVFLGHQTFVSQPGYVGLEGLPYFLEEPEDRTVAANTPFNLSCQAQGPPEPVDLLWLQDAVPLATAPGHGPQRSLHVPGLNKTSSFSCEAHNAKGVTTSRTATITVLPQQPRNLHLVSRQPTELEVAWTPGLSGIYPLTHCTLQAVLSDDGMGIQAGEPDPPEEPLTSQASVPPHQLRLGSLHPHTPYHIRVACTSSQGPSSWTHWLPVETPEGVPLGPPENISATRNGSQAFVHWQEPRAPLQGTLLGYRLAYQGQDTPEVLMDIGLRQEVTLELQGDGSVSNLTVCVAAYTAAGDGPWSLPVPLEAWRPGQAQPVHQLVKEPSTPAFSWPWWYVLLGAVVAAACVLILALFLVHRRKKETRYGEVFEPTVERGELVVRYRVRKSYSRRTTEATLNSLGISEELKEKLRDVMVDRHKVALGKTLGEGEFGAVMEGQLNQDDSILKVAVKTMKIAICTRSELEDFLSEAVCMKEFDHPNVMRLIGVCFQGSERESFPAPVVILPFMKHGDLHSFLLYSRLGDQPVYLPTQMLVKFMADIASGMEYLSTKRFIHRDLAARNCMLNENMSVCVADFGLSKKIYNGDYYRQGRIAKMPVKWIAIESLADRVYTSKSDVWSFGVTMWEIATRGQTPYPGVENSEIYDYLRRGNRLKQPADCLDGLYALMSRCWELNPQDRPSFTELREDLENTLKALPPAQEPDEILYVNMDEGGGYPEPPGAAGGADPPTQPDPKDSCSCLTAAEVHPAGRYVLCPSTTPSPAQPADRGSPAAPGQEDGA

| Substance | EC50 (pM), concentration leading to 50% cell killing, XTT/PMS viability of MDA-MB-231 cells after 72 h [table] |
| --- | --- |
| Saporin | 79800 pM |
| Control SAP | 4080 pM |
